According to the array DNA melting data of Ke et al.:

test: melting temperature; melt of duplexes; settings: sodium 0.0675 M; strand 1 µM

In order of rising Tm:
1. CGACGTGCACTATGTGCTG+CAGCACATCTAGCACGTCG ((((((((...((((((((+))))))))...))))))))  42.4 °C
2. CGACGTGCTTCATGTGCTG+CAGCACATCGTGCACGTCG ((((((((...((((((((+))))))))...))))))))  43.2 °C
3. CGACGTGCTCTATGTGCTG+CAGCACATGACGCACGTCG ((((((((...((((((((+))))))))...))))))))  47 °C
4. CGACGTGCAACATGTGCTG+CAGCACATCAAGCACGTCG ((((((((...((((((((+))))))))...))))))))  47.1 °C
5. CGACGTGCGTTATGTGCTG+CAGCACATTGTGCACGTCG ((((((((...((((((((+))))))))...))))))))  47.2 °C
6. CGACGTGCCTTATGTGCTG+CAGCACATCCTGCACGTCG ((((((((...((((((((+))))))))...))))))))  47.2 °C
7. CGACGTGCATAATGTGCTG+CAGCACATACGGCACGTCG ((((((((...((((((((+))))))))...))))))))  47.3 °C
8. CGACGTGCCGCATGTGCTG+CAGCACATCTTGCACGTCG ((((((((...((((((((+))))))))...))))))))  47.4 °C
9. CGACGTGCCCTATGTGCTG+CAGCACATTGTGCACGTCG ((((((((.(.((((((((+)))))))).).))))))))  47.8 °C
10. CGACGTGCTCCATGTGCTG+CAGCACATATTGCACGTCG ((((((((...((((((((+))))))))...))))))))  47.9 °C
11. CGACGTGCCCGATGTGCTG+CAGCACATAATGCACGTCG ((((((((...((((((((+))))))))...))))))))  48.1 °C
12. CGACGTGCCCCATGTGCTG+CAGCACATTGCGCACGTCG ((((((((.(.((((((((+)))))))).).))))))))  48.2 °C
13. CGACGTGCACGATGTGCTG+CAGCACATACGGCACGTCG ((((((((...((((((((+))))))))...))))))))  48.2 °C
14. CGACGTGCTCCATGTGCTG+CAGCACATTTGGCACGTCG ((((((((...((((((((+))))))))...))))))))  48.3 °C
15. CGACGTGCACGATGTGCTG+CAGCACATGAGGCACGTCG ((((((((...((((((((+))))))))...))))))))  48.4 °C
16. CGACGTGCCCTATGTGCTG+CAGCACATACAGCACGTCG ((((((((..(((((((((+)))))))))..))))))))  48.8 °C
17. CGACGTGCCCTATGTGCTG+CAGCACATATTGCACGTCG ((((((((..(((((((((+)))))))))..))))))))  48.9 °C
18. CGACGTGCTACATGTGCTG+CAGCACATAACGCACGTCG ((((((((...((((((((+))))))))...))))))))  49 °C
19. CGACGTGCTGGATGTGCTG+CAGCACATTGCGCACGTCG ((((((((...((((((((+))))))))...))))))))  49.5 °C
20. CGACGTGCCGAATGTGCTG+CAGCACATACCGCACGTCG ((((((((.(.((((((((+)))))))).).))))))))  49.5 °C
21. CGACGTGCGATATGTGCTG+CAGCACATCAGGCACGTCG ((((((((...((((((((+))))))))...))))))))  49.5 °C
22. CGACGTGCCTTATGTGCTG+CAGCACATTGAGCACGTCG ((((((((...((((((((+))))))))...))))))))  49.6 °C
23. CGACGTGCTCAATGTGCTG+CAGCACATCATGCACGTCG ((((((((...((((((((+))))))))...))))))))  49.7 °C
24. CGACGTGCGCCATGTGCTG+CAGCACATTCAGCACGTCG ((((((((...((((((((+))))))))...))))))))  49.8 °C
25. CGACGTGCACGATGTGCTG+CAGCACATCCCGCACGTCG ((((((((..(((((((((+)))))))))..))))))))  49.9 °C
26. CGACGTGCTAAATGTGCTG+CAGCACATGGTGCACGTCG ((((((((...((((((((+))))))))...))))))))  49.9 °C
27. CGACGTGCGTCATGTGCTG+CAGCACATTGGGCACGTCG ((((((((...((((((((+))))))))...))))))))  49.9 °C
28. CGACGTGCCATATGTGCTG+CAGCACATTCAGCACGTCG ((((((((...((((((((+))))))))...))))))))  50.2 °C
29. CGACGTGCAATATGTGCTG+CAGCACATACAGCACGTCG ((((((((..(((((((((+)))))))))..))))))))  50.3 °C
30. CGACGTGCAGAATGTGCTG+CAGCACATCGAGCACGTCG ((((((((...((((((((+))))))))...))))))))  50.3 °C
31. CGACGTGCACGATGTGCTG+CAGCACATGGAGCACGTCG ((((((((.(.((((((((+)))))))).).))))))))  50.5 °C
32. CGACGTGCTGAATGTGCTG+CAGCACATCGGGCACGTCG ((((((((...((((((((+))))))))...))))))))  50.9 °C
33. CGACGTGCCGAATGTGCTG+CAGCACATGTCGCACGTCG ((((((((...((((((((+))))))))...))))))))  51.4 °C
34. CGACGTGCTTCATGTGCTG+CAGCACATATAGCACGTCG (((((((((..((((((((+))))))))..)))))))))  51.5 °C
35. CGACGTGCAGAATGTGCTG+CAGCACATCCAGCACGTCG ((((((((.(.((((((((+)))))))).).))))))))  51.6 °C
36. CGACGTGCGCGATGTGCTG+CAGCACATACAGCACGTCG ((((((((...((((((((+))))))))...))))))))  51.7 °C
37. CGACGTGCTAAATGTGCTG+CAGCACATACAGCACGTCG (((((((((..((((((((+))))))))..)))))))))  51.9 °C
38. CGACGTGCTCCATGTGCTG+CAGCACATAGGGCACGTCG ((((((((.(.((((((((+)))))))).).))))))))  52.3 °C
39. CGACGTGCAACATGTGCTG+CAGCACATCTTGCACGTCG ((((((((((.((((((((+)))))))).))))))))))  52.5 °C
40. CGACGTGCTACATGTGCTG+CAGCACATTGAGCACGTCG (((((((((..((((((((+))))))))..)))))))))  52.8 °C
41. CGACGTGCAAGATGTGCTG+CAGCACATTGCGCACGTCG ((((((((...((((((((+))))))))...))))))))  52.9 °C
42. CGACGTGCCCGATGTGCTG+CAGCACATGGCGCACGTCG ((((((((.(.((((((((+)))))))).).))))))))  53.3 °C
43. CGACGTGCCACATGTGCTG+CAGCACATCGGGCACGTCG (((((((((..((((((((+))))))))..)))))))))  53.9 °C
44. CGACGTGCCTGATGTGCTG+CAGCACATACGGCACGTCG (((((((((..((((((((+))))))))..)))))))))  54.1 °C
45. CGACGTGCAGAATGTGCTG+CAGCACATAATGCACGTCG (((((((((..((((((((+))))))))..)))))))))  54.2 °C
46. CGACGTGCGCGATGTGCTG+CAGCACATCCTGCACGTCG ((((((((..(((((((((+)))))))))..))))))))  54.4 °C
47. CGACGTGCGAAATGTGCTG+CAGCACATTGGGCACGTCG ((((((((..(((((((((+)))))))))..))))))))  54.5 °C
48. CGACGTGCGTGATGTGCTG+CAGCACATATCGCACGTCG (((((((((..((((((((+))))))))..)))))))))  54.6 °C
49. CGACGTGCGGAATGTGCTG+CAGCACATTTGGCACGTCG ((((((((..(((((((((+)))))))))..))))))))  54.6 °C
50. CGACGTGCGGCATGTGCTG+CAGCACATATAGCACGTCG ((((((((...((((((((+))))))))...))))))))  54.7 °C
51. CGACGTGCTTAATGTGCTG+CAGCACATCAAGCACGTCG ((((((((((.((((((((+)))))))).))))))))))  55 °C
52. CGACGTGCCACATGTGCTG+CAGCACATCTGGCACGTCG ((((((((((.((((((((+)))))))).))))))))))  55.2 °C
53. CGACGTGCAGGATGTGCTG+CAGCACATGCGGCACGTCG ((((((((.(.((((((((+)))))))).).))))))))  55.3 °C
54. CGACGTGCTCGATGTGCTG+CAGCACATAGGGCACGTCG ((((((((.(.((((((((+)))))))).).))))))))  55.4 °C
55. CGACGTGCGTTATGTGCTG+CAGCACATAAAGCACGTCG ((((((((.((((((((((+)))))))))).))))))))  56 °C
56. CGACGTGCATGATGTGCTG+CAGCACATAATGCACGTCG ((((((((((.((((((((+)))))))).))))))))))  56 °C
57. CGACGTGCAGGATGTGCTG+CAGCACATACGGCACGTCG ((((((((.(.((((((((+)))))))).).))))))))  56.1 °C
58. CGACGTGCTTAATGTGCTG+CAGCACATAAAGCACGTCG ((((((((((.((((((((+)))))))).))))))))))  56.2 °C
59. CGACGTGCATGATGTGCTG+CAGCACATCAAGCACGTCG ((((((((.((((((((((+)))))))))).))))))))  56.5 °C
60. CGACGTGCAGGATGTGCTG+CAGCACATCAGGCACGTCG ((((((((..(((((((((+)))))))))..))))))))  56.6 °C
61. CGACGTGCTCAATGTGCTG+CAGCACATTGTGCACGTCG ((((((((.((((((((((+)))))))))).))))))))  56.7 °C
62. CGACGTGCGTAATGTGCTG+CAGCACATGGCGCACGTCG (((((((((..((((((((+))))))))..)))))))))  57.2 °C
63. CGACGTGCGACATGTGCTG+CAGCACATGGTGCACGTCG ((((((((..(((((((((+)))))))))..))))))))  57.3 °C
64. CGACGTGCTAAATGTGCTG+CAGCACATTTGGCACGTCG ((((((((.((((((((((+)))))))))).))))))))  57.9 °C
65. CGACGTGCGGCATGTGCTG+CAGCACATACCGCACGTCG ((((((((((.((((((((+)))))))).))))))))))  60 °C
66. CGACGTGCGTGATGTGCTG+CAGCACATCTCGCACGTCG (((((((((.(((((((((+))))))))).)))))))))  61.3 °C
67. CGACGTGCGGGATGTGCTG+CAGCACATCCGGCACGTCG ((((((((.((((((((((+)))))))))).))))))))  61.6 °C
68. CGACGTGCAAAATGTGCTG+CAGCACATTTTGCACGTCG (((((((((((((((((((+)))))))))))))))))))  62.4 °C
69. CGACGTGCCACATGTGCTG+CAGCACATGGGGCACGTCG (((((((((.(((((((((+))))))))).)))))))))  63.6 °C
70. CGACGTGCGAAATGTGCTG+CAGCACATTTCGCACGTCG (((((((((((((((((((+)))))))))))))))))))  64.7 °C
71. CGACGTGCGACATGTGCTG+CAGCACATGTCGCACGTCG (((((((((((((((((((+)))))))))))))))))))  67.2 °C
72. CGACGTGCCCGATGTGCTG+CAGCACATCGGGCACGTCG (((((((((((((((((((+)))))))))))))))))))  68.2 °C
